Assay [1] addresses T1, Mg1LysM (Zymoseptoria tritici, UniProt F9XHX3).
T1 construct: mature single-LysM effector, signal peptide absent; ITC: E. coli Origami pET-SUMO, His-SUMO cut off by ULP1; crystal: P. pastoris GS115, His-FLAG tag; ligand-independent homodimer; chitin site formed by two protomers of neighbouring homodimers
In words: X-ray crystal structure of the complex ([…] Å). As to conditions: P. pastoris-produced protein; ligand co-purified from host cell wall; site between two protomers of neighbouring homodimers. In kind it is binding.

Assay [2] addresses (GlcNAc)6. In words: ITC. A general note: In ITC the heat of successive injections is recorded.

With `CC(=O)N[C@H]1[C@H](O[C@H]2[C@H](O)[C@@H](NC(C)=O)C(O)O[C@@H]2CO)O[C@H](CO)[C@@H](O[C@@H]2O[C@H](CO)[C@@H](O)[C@H](O)[C@H]2NC(C)=O)[C@@H]1O` (stereo partly shown) [chitin trimer], the “X-ray crystal structure of the complex (2.41 Å)” value in assay [1] is listed as “well-defined electron density for a single chitin trimer bound to one monomer of the a.u”.
In assay [2], “Mg1LysM (Zymoseptoria tritici LysM effector), wild type, produced in E. coli (from UniProt A0A1X7S147) D54A” gave an other: stoichiometry N of 0.902.
As to “Mg1LysM (Zymoseptoria tritici LysM effector), wild type, produced in E. coli (from UniProt A0A1X7S147) K31A”, in assay [2], the other: stoichiometry N amounted to 0.97.
“Mg1LysM (Zymoseptoria tritici LysM effector), wild type, produced in E. coli (from UniProt A0A1X7S147) T28R”: the other: stoichiometry N in assay [2] came out at 0.956.

The record behind these values is paper PMC7337405, “A secreted LysM effector protects fungal hyphae through chitin-dependent homodimer polymerization” (PLoS Pathogens, 2020).
